± gives the standard deviation of the averaged measurements.
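Also: PSI is a weighted mean of sequencing reads over stability bins, variants kept only with over 10 reads, mCherry proximal and sfGFP distal, peptide attached via GGGS linker.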

The test system of this data set is Saccharomyces cerevisiae. Description: protein stability index of tFT-peptide fusion (C-terminal peptide) (PSI (0-1 scale)); higher = more stable (slower turnover). The note with it: genetic background: wild type; temperature: 30 C.
Turning to RLSDFFSPPLLP, the protein stability index came out at 0.717 ± 0.047.
Next, RLSMCLDDPPRL: 0.717 ± 0.025; RLSPGSPSPFPC: 0.691 ± 0.029; RLSSFDELSDVY: 0.729 ± 0.026.
Next, RLYTNEMIRGSF: 0.69 ± 0.04.
Consider RMGGRGGRLGAE, for which the protein stability index is 0.657 ± 0.018.
For the sequence RMGWSGKVGVVG, the protein stability index came to 0.78 ± 0.11.
Next, RMNSDMKDTEAQ: 0.65 ± 0.0075; RNARSPACRTRR: 0.7481 ± 0.0052; RNFWIYTHTRCR: 0.668 ± 0.049.
As for RNKLEKKIYKRS, the protein stability index came out at 0.672 ± 0.014.
As for RNKSRMWKEIIR, the figure is 0.657 ± 0.069; as for RNRAGHVGCYGL, 0.6989 ± 0.0066.
As for RNRSNTQAKVIR, the figure is 0.6725 ± 0.004; as for RNTKGTIKKKKE, 0.715 ± 0.074; as for RNTPFVCVRNGA, 0.726 ± 0.16.
In the case of RPAFSPDVSPPS, the protein stability index is 0.716 ± 0.013.
In turn, RPEAVARIFDDE yielded a protein stability index of 0.724 ± 0.013.
Next, RPFLSVLPLFFP: 0.734 ± 0.0017; RPFSSPSPSLPA: 0.743 ± 0.071.
The sequence RPGGSRTEGRRT returned a protein stability index of 0.683 ± 0.033.
The sequence RPPISLGSLLVG yielded a protein stability index of 0.714 ± 0.1.
RPPPAAPLHITS had a protein stability index of 0.714.
Next, RPPPHPPFPPRF: 0.714 ± 0.052; RPPPLPLPPHFP: 0.709 ± 0.069.
Next, RPPPPLSPPSLV: 0.73 ± 0.0084.
As for RPPRPSSSPLPP, the figure is 0.719 ± 0.059; as for RPPSLWRSSFTP, 0.6822 ± 0.0026; as for RPQNDRKMRKVE, 0.621 ± 0.059.
Consider RPRELHNSETVY, for which the protein stability index stood at 0.683 ± 0.025.
Next, RPRTLLARSTHP: 0.717 ± 0.013; RPRVDLCDINPE: 0.692 ± 0.021.
Next, RPSHPPHLPPPV: 0.6753 ± 0.0044.
As for RPSLSPLHVPPS, the protein stability index was found to be 0.748 ± 0.047.
The sequence RPVRYVLSGGCI yielded a protein stability index of 0.68 ± 0.012.
Next, RPYKINNNIEVK: 0.676 ± 0.01; RQEKITQHRARI: 0.689 ± 0.024.
Turning to RQLGELASARWL, the protein stability index turned out to be 0.709 ± 0.025.
As for RQPRPPDDIASV, the figure is 0.678 ± 0.032; as for RQRSKEPVVQAY, 0.654 ± 0.046; as for RQSSPKQDRKPS, 0.679 ± 0.048.
Next, RRATHTRDINNL: 0.643 ± 0.015; RRERQRRARTEI: 0.6876 ± 0.0036; RREVFIPSTRVL: 0.698 ± 0.044.
Next, RRGAPSYATLAL: 0.637 ± 0.0073; RRGASWDEDAGS: 0.719 ± 0.0086; RRGENQSFPACR: 0.701 ± 0.028.
In turn, RRGHMTRFTHSR returned a protein stability index of 0.692 ± 0.077.
Next, RRGPDRCSSLPS: 0.6638 ± 0.0044; RRHHSVSPLPFL: 0.709 ± 0.0099; RRIGKTFLSLNI: 0.709 ± 0.073.
As for RRKGGEERKLKK, the figure is 0.629 ± 0.037; as for RRKRTKGRGRAQ, 0.6986 ± 0.002.
In turn, RRLAGRPVTRGA came in with a protein stability index of 0.667 ± 0.015.
Next, RRLEPGVAWFPT: 0.661 ± 0.01.
Next, RRLLRWFYLDGG: 0.661 ± 0.022; RRMAGEPKCGRS: 0.699 ± 0.015; RRPGGQGHPNAG: 0.752 ± 0.023.
As for RRPGSTTPPAYR, the figure is 0.675 ± 0.048.
Consider RRPTVLRHQSPI, for which the protein stability index was found to be 0.737 ± 0.031.
The sequence RRREESGEGSEQ displayed a protein stability index of 0.635 ± 0.073.
As for RRRLLLWEELVE, the protein stability index came out at 0.7706 ± 0.004.
Next, RRRQARGANAHS: 0.7 ± 0.013.
Next, RRRRAVGPREAP: 0.717 ± 0.17; RRRREKWSVVHR: 0.758 ± 0.0096; RRRTARVRTGQV: 0.647 ± 0.043.
As for RRRVADIYHGEK, the figure is 0.713 ± 0.086; as for RRSGLTNLCSLH, 0.746 ± 0.04; as for RRSRPSSPYLPP, 0.707 ± 0.0094.
Consider RRTTYKKVKRKK, for which the protein stability index was determined as 0.65 ± 0.062.
As to RRVGPVSPNWIS, the protein stability index came to 0.6499 ± 0.0042.
As for RRVPVVSRAGGG, the figure is 0.697 ± 0.067; as for RRWAFWGAAAAR, 0.702 ± 0.013.
RRWCATLGRDRV displayed a protein stability index of 0.7029 ± 0.0051.
Next, RRWGGCPGVRGC: 0.666 ± 0.019; RSANIINPHIFP: 0.758 ± 0.014.
As for RSASPPRPLPPP, the figure is 0.737 ± 0.032.
As for RSCCSFRLEPYC, the figure is 0.671 ± 0.026.
For the sequence RSCVGGISVLVL, the protein stability index worked out at 0.466 ± 0.085.
As for RSEPRQILHRQT, the figure is 0.702 ± 0.025; as for RSFAGTTRIRLG, 0.739 ± 0.043.
Next, RSFLTDLLRGAA: 0.647 ± 0.054; RSFPYLLFPPPS: 0.713 ± 0.046.
As for RSGLHGSGRPGG, the figure is 0.715 ± 0.053.
In turn, RSHPSPPPVILY displayed a protein stability index of 0.686 ± 0.045.
As for RSLGFPLRNVTH, the figure is 0.655 ± 0.015; as for RSLGLVGRGFWG, 0.728 ± 0.086.
Next, RSLRSSRSGTLA: 0.848 ± 0.014; RSMLVSRQSIGV: 0.695 ± 0.019; RSNECTSEMEVC: 0.689 ± 0.04.
As for RSPPPSLTPSPL, the figure is 0.68193 ± 0.00027; as for RSPTGSPGRSFS, 0.687 ± 0.025; as for RSRATIGSQILS, 0.688 ± 0.01.
As for RSRCHPRLPRAV, the protein stability index worked out at 0.707 ± 0.03.
Next, RSRHPPPPLLFP: 0.707 ± 0.043; RSRLSEAEEYGR: 0.71 ± 0.0072.
As for RSRPPPSPTTPL, the figure is 0.775 ± 0.054; as for RSRRFPPTRPPL, 0.73956 ± 0.00073; as for RSRYRLFRADLS, 0.753 ± 0.062.
RSSGAFKVCTDR: the protein stability index turned out to be 0.684 ± 0.019.
Next, RSSGPPCLIPLP: 0.787 ± 0.047.
In turn, RSSLGSFSELSQ yielded a protein stability index of 0.777 ± 0.031.
As for RSSPPHLPPPSL, the figure is 0.68 ± 0.026.
In turn, RSSSPLPLLSLL had a protein stability index of 0.753 ± 0.053.
Next, RSTLSPSPRPSP: 0.674 ± 0.0042; RSTSGACSRRWL: 0.624 ± 0.025; RSVSLIAVAPSA: 0.692 ± 0.017.
Consider RSWIDNKMKVNV, for which the protein stability index was found to be 0.721 ± 0.0076.
As for RSYLLVWTSRLH, the figure is 0.637 ± 0.02; as for RTAGQRLIRVNR, 0.744 ± 0.075; as for RTAPVPETAQQD, 0.678 ± 0.034.
As for RTAVFLTRRYGT, the figure is 0.673 ± 0.02; as for RTDKETIKKIVE, 0.72 ± 0.014.
As for RTLNPHLYRLRH, the figure is 0.682 ± 0.024.
RTRPCNGPGRFG displayed a protein stability index of 0.724 ± 0.057.
As for RTTHPSPPTLTV, the figure is 0.629 ± 0.021.

The values are drawn from the supplement of paper PMC10724198.
